The results in this text go back to the supplement of paper PMC7877785.

This data set can be described thus: self-splicing fitness, log relative to wild type (ln ratio); higher = more splicing; Tetrahymena group I intron in knt gene, E. coli kanamycin selection, DiMSum; sequences stand for … in CUCUCU…GGAGGGAAAAGUUAUCAGGCAUGCACCUGGUAGCUAGUCUUUAAACCAAUAGAUUGCAUCGGUUUAAAAGGCAAGACCGUCAAAUUGCGGGAAAGGGGUCAACAGCCGUUCAGUACCAAGUCUCAGGGGAAACUUUGAGAUGGCCUUGCAAAGGGUAUGGUAAUAAGCUGACGGACAUGGUCCUAACCACGCAGCCAAGUCCUAAGUCAACAGAUCUUCUGUUGAUAUGGAUGCAGUUCACAGACUAAAUGUCGGUCGGGGAAGAUGUAUUCUUCUCAUAAGAUAUAGUCGGACCUCUCCUUAAUGGGAGCUAGCGGAUGAAGUGAUGCAACACUGGAGCCGCUGGGAACUAAUUUGUAUGCGAAAGUAUAUUGAUUAGUUUUGGAGUACUCGUGGUCG
The method in brief: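 Pooled colonies went to amplicon sequencing on an Illumina HiSeq 2500 after six replicate transformations. The plates were LB agar with 100 μg/mL carbenicillin, 50 μM IPTG and 0.2% rhamnose, with or without 25 μg/mL kanamycin, incubated overnight at 37°C or 30°C. The E. coli BL21(DE3) library had all eight P1ex-region intron nucleotides randomised, the intron placed in the knt kanamycin-resistance gene on pET-22b(+). DiMSum fitness is the error-weighted combination of replicate fold changes, kanamycin against none, normalised to wild type.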

± gives the uncertainty stated by the source.

Consider CUACAGCAAUAUUACGUCUA, for which the “self-splicing fitness (ln)” value runs as follows: (30 °C) -3.21 ± 0.24; (37 °C) -3.04 ± 0.33.

With CAUUAGCAAUAUUACGUUUC, the “self-splicing fitness (ln)” value is -2.39 ± 0.33 (30 °C) and -2.2 ± 0.32 (37 °C). On to CUACAGCAAUAUUACGACUU, for which the “self-splicing fitness (ln)” value (30 °C) was -3.83 ± 0.32 and the “self-splicing fitness (ln)” value (37 °C) was -2.81 ± 0.35. The matching figures for AGAGAGCAAUAUUACGUUAC: -2.67 ± 0.22 and -2.19 ± 0.42. In the case of UCUCAGCAAUAUUACGUAAU, the “self-splicing fitness (ln)” value was -3.43 ± 0.18 (30 °C) and -2.28 ± 0.18 (37 °C).

Take UGAAAGCAAUAUUACGCCCA: the “self-splicing fitness (ln)” value was -0.309 ± 0.11 (30 °C) and 0.296 ± 0.16 (37 °C). As for GCCAAGCAAUAUUACGUUAA, the “self-splicing fitness (ln)” value (30 °C) was -3.54 ± 0.21 and the “self-splicing fitness (ln)” value (37 °C) is -2.89 ± 0.17. For GUCGAGCAAUAUUACGCUCA, in that order: -0.929 ± 0.21 and -0.388 ± 0.22. In the case of UAGCAGCAAUAUUACGUACG, the “self-splicing fitness (ln)” value was -1.2 ± 0.072 (30 °C) and -0.47 ± 0.1 (37 °C).

In the case of AUCAAGCAAUAUUACGCUGU, the “self-splicing fitness (ln)” value is -2.62 ± 0.097 (30 °C) and -1.1 ± 0.084 (37 °C). Turning to ACCCAGCAAUAUUACGGCUA, the “self-splicing fitness (ln)” value is, setting by setting: (30 °C) -0.684 ± 0.1; (37 °C) 0.23 ± 0.1. AUCCAGCAAUAUUACGUUAU: the “self-splicing fitness (ln)” value reads like this: (30 °C) -1.36 ± 0.072; (37 °C) -0.198 ± 0.089. Consider UGGGAGCAAUAUUACGCCAU, for which the “self-splicing fitness (ln)” value runs as follows: (30 °C) -3.45 ± 0.33; (37 °C) -0.288 ± 0.26. For UCGUAGCAAUAUUACGUUUU, the “self-splicing fitness (ln)” value (30 °C) was -2.58 ± 0.17 and the “self-splicing fitness (ln)” value (37 °C) is -3.25 ± 0.23.

In the case of AUAAAGCAAUAUUACGACCU, the “self-splicing fitness (ln)” value is, setting by setting: (30 °C) -0.0242 ± 0.097; (37 °C) 0.381 ± 0.12. For ACGAAGCAAUAUUACGAUCA, in that order: -1.08 ± 0.12 and -0.536 ± 0.12.

As to GUAAAGCAAUAUUACGAUGG, the “self-splicing fitness (ln)” value is, setting by setting: (30 °C) -1.81 ± 0.081; (37 °C) -0.952 ± 0.1. As to CCUUAGCAAUAUUACGUCCC, the “self-splicing fitness (ln)” value (30 °C) was -1.81 ± 0.5. As to AAACAGCAAUAUUACGCCGU, the “self-splicing fitness (ln)” value was -2.54 ± 0.13 (30 °C) and -1.96 ± 0.11 (37 °C). As for CUGCAGCAAUAUUACGUCUC, the “self-splicing fitness (ln)” value (37 °C) was -2.12 ± 0.26. In the case of UACCAGCAAUAUUACGUUGU, the “self-splicing fitness (ln)” value is -3.56 ± 0.12 (30 °C) and -2.66 ± 0.12 (37 °C). In the case of GCUGAGCAAUAUUACGGGGC, the “self-splicing fitness (ln)” value is -3.02 ± 0.24 (30 °C) and -3.85 ± 0.42 (37 °C). The matching figures for ACAAAGCAAUAUUACGAGGA: -3.04 ± 0.2 and -2.07 ± 0.19. Turning to UGUCAGCAAUAUUACGCACU, the “self-splicing fitness (ln)” value is, setting by setting: (30 °C) -1.07 ± 0.087; (37 °C) -0.0217 ± 0.12.

Consider GCUUAGCAAUAUUACGCACA, for which the “self-splicing fitness (ln)” value (30 °C) was -1.02 ± 0.14 and the “self-splicing fitness (ln)” value (37 °C) is 0.3 ± 0.15.

For UACUAGCAAUAUUACGCGUU, the “self-splicing fitness (ln)” value was -2.33 ± 0.11 (30 °C) and -0.827 ± 0.1 (37 °C). The matching figures for AGGUAGCAAUAUUACGGUCA: -0.279 ± 0.014 and 0.00808 ± 0.033. As for GCCAAGCAAUAUUACGAAAG, the “self-splicing fitness (ln)” value (30 °C) was -3.63 ± 0.21 and the “self-splicing fitness (ln)” value (37 °C) is -0.702 ± 0.2.

For GGACAGCAAUAUUACGGCUG, the “self-splicing fitness (ln)” value was -3.23 ± 0.31 (30 °C) and -0.371 ± 0.18 (37 °C). Regarding UAGGAGCAAUAUUACGCGGU, the “self-splicing fitness (ln)” value (30 °C) was -1.52 ± 0.23.

Consider GUACAGCAAUAUUACGAGGA, for which the “self-splicing fitness (ln)” value reads like this: (30 °C) -3.11 ± 0.29; (37 °C) -1.88 ± 0.23. GUAAAGCAAUAUUACGGCUC: the “self-splicing fitness (ln)” value (30 °C) is -0.0413 ± 0.071 and the “self-splicing fitness (ln)” value (37 °C) is 0.298 ± 0.1. For UAAUAGCAAUAUUACGGGUG, the “self-splicing fitness (ln)” value runs as follows: (30 °C) -1.9 ± 0.096; (37 °C) -0.875 ± 0.094. In the case of UUGCAGCAAUAUUACGUCCA, the “self-splicing fitness (ln)” value is -0.493 ± 0.1 (30 °C) and 0.00855 ± 0.088 (37 °C).
